Data as given in publication doi:10.64898/2025.12.19.695307.

Biological target: R1-32 (human)
Assay: BLI

Work on “SARS-CoV-2 Omicron BA.2.11 RBD (from UniProt P0DTC2 332-527) (domain or fragment)” yielded a Kd greater than 55 nM.
